From paper PMC12700558, “Aggregation shifts amyloid-β peptides from synaptogenic to synaptotoxic” (The Journal of Clinical Investigation, 2025)

Key:
[1] = test system: human neurons cocultured with mouse glia; experiment: Aβ42 fractionation experiment, MTT assay of supernatant and pellet; type: cell-based; conditions: fractions of Aβ42 preaggregated at 37°C for 24 hours, 20,000g 15 minutes; 0.2 μM chronic, DIV45
Protocol: Aggregation mixtures were centrifuged at 20,000g for 15 minutes at 4°C. The supernatant (enriched in monomer, small oligomers and residual larger species) was removed without disturbing the pellet. The pellet (large aggregates and high-molecular-weight oligomers) was resuspended in DMSO to the original volume. Supernatant and the resuspended pellet were administered to neurons, independently, at the concentration of 0.2 μM following the same protocol of administration used in this study (Figure 1A) and described above.

human neurons = experiment: NLS-TdTomato cytotoxicity assay (cytoplasmic leakage of NLS-TdTomato); conditions: 5% DMSO or 200 μM hydrogen peroxide, each applied for 4 hours, DIV30
Protocol: The MTT assay employs yellow tetrazolium dye that is reduced to a purple formazan crystal by viable cells with active metabolism ([21]). Because it measures metabolic activity in all cells, this assay serves as a broad cytotoxicity read out for the entire glia/neuron coculture system. The amount of formazan produced is then measured because it is directly proportional to the number of viable cells ([21]) (Figure 1B and Supplemental Figure 1A). The nuclear localization TdTomato assay, conversely, enables monitoring of cellular stress by tracking the localization of fluorescent TdTomato fused to a nuclear localization signal. Under healthy conditions, the nuclear localization signal directs the NLS-TdTomato to the nucleus. When toxicity in a cell causes a reduction in ATP levels, NLS-TdTomato leaks out of the nucleus into the cytoplasm, which we scored as an index of toxicity (Figure 1, C and D, and Supplemental Figure 1, B–D). Because the reporter is expressed only in neurons, this assay specifically assesses neurotoxicity within the coculture. We developed this assay because it can be performed on live cells and reflects decreases in ATP levels in these cells. […]
To assess neuronal cytotoxicity induced by Aβ peptides, we employed a novel Td-Tomato cytotoxicity assay that we developed. […] Neurons displaying cytoplasmic Td-Tomato were counted as indicators of cytotoxicity. […]

Compound	Loss of viability, MTT assay (in words) [1]	Validation of the NLS-TdTomato assay: nuclear-to-cytoplasmic shift of NLS-TdTomato (in words) (human neurons)
supernatant: supernatant of centrifuged preaggregated Aβ42, enriched in monomer, small oligomers and residual larger species	same loss of viability	
pellet: pellet of centrifuged preaggregated Aβ42, large aggregates and high-molecular-weight oligomers, resuspended in DMSO	same loss of viability	
OO [hydrogen peroxide]		rapidly induced the nuclear-to-cytoplasmic shift of NLS-TdTomato
